Experimental data reported in US20180362628A1 (KYMAB, published 2018).
Changes are numbered by the printed parent chain. Read-outs that look alike come from different tables or passages of the source. No end group written: not given here. *: point of attachment. Biotin = O=C1N[C@H]2[C@H](CS[C@H]2CCCCC(=O)*)N1

How the values were obtained:
[1] = biological target: Recombinant CSP (Wellcome Trust Sanger Institute, FIG. 22), CSP ectodomain with BirA biotinylation tag, biolinker and histidine tag (Plasmodium falciparum strain 3D7) (UniProt Q7K740); assay: SPR, 2A10 on anti-mouse capture surface, CSP as analyte, 25 C, 1:1 fit
[2] = biological target: T1, Recombinant CSP (Wellcome Trust Sanger Institute, FIG. 22), CSP ectodomain with BirA biotinylation tag, … (Plasmodium falciparum strain 3D7, UniProt Q7K740 19-376, biotinylated at the BirA substrate peptide); assay: SPR, IgG1 captured, CSP as analyte, 40 C; apparent affinity (avidity)
T1 construct: extracellular domain; Expressed in HEK293, 45 kDa; order of the tags is that of the legend, not confirmed; also called biotinylated recombinant CSP

[3] = biological target: T2, Peptide #12 (Biotin-SGSGDGNPDPAANPNV); assay: BLI, biotin-peptide on streptavidin sensor, IgG1 in solution, 25 C;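 as to Response (nm): antibody solution at 30 µg/mL during association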
T2 construct: alanine scan variant; also called Peptide #12 44296
T2 peptide: Biotin-SGSGDGNPDPAANPNV

[4] = biological target: T3, Peptide #3 (Biotin-SGSGHKKLKQPGDGNPDPNANPN) (N-terminal biotin); assay: as above
T3 construct: also called Peptide #3 44288
T3 peptide: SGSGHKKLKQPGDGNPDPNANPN

[5] = biological target: T4, Peptide #14 (Biotin-SGSGDGNPDPNAAPNV); assay: as above
T4 construct: alanine scan variant; also called Peptide #14 44298
T4 peptide: Biotin-SGSGDGNPDPNAAPNV

[6] = biological target: T5, Peptide #1 (Biotin-SGSGKPKHKKLKQPGDGNPDPNANP) (N-terminal biotin); assay: as above
T5 construct: also called Peptide #1 44286
T5 peptide: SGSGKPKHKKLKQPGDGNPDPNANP

[7] = biological target: T6, Peptide #15 (Biotin-SGSGDGNPDPNANANV); assay: as above
T6 construct: alanine scan variant; also called Peptide #15 44299
T6 peptide: Biotin-SGSGDGNPDPNANANV

[8] = biological target: T7, Peptide #5 (Biotin-SGSGDGNPDPNANPNV), original sequence of the alanine scan; assay: as above
T7 construct: also called Peptide #5 44289
T7 peptide: Biotin-SGSGDGNPDPNANPNV

[9] = biological target: T8, Peptide #11 (Biotin-SGSGDGNPDANANPNV); assay: as above
T8 construct: alanine scan variant; also called Peptide #11 44295
T8 peptide: Biotin-SGSGDGNPDANANPNV

[10] = biological target: T9, Peptide #7 (Biotin-SGSGDANPDPNANPNV); assay: as above
T9 construct: alanine scan variant; also called Peptide #7 44291
T9 peptide: Biotin-SGSGDANPDPNANPNV

[11] = biological target: T10, Peptide #4 (Biotin-SGSGNPDPNANP); assay: as above
T10 construct: also called Peptide #4 44285
T10 peptide: Biotin-SGSGNPDPNANP

[12] = biological target: T11, Peptide #9 (Biotin-SGSGDGNADPNANPNV); assay: as above
T11 construct: alanine scan variant; also called Peptide #9 44293
T11 peptide: Biotin-SGSGDGNADPNANPNV

[13] = biological target: T12, Peptide #6 (Biotin-SGSGAGNPDPNANPNV); assay: as above
T12 construct: alanine scan variant; also called Peptide #6 44290
T12 peptide: Biotin-SGSGAGNPDPNANPNV

[14] = biological target: T13, Peptide #16 (Biotin-SGSGDGNPDPNANPAV); assay: as above
T13 construct: alanine scan variant; also called Peptide #16 44300
T13 peptide: Biotin-SGSGDGNPDPNANPAV

[15] = biological target: T14, Peptide #10 (Biotin-SGSGDGNPAPNANPNV); assay: as above
T14 construct: alanine scan variant; also called Peptide #10 44294
T14 peptide: Biotin-SGSGDGNPAPNANPNV

[16] = biological target: T15, Peptide #8 (Biotin-SGSGDGAPDPNANPNV); assay: as above
T15 construct: alanine scan variant; also called Peptide #8 44292
T15 peptide: Biotin-SGSGDGAPDPNANPNV

[17] = biological target: T16, Peptide #17 (Biotin-SGSGDGNPDPNANPNA); assay: as above
T16 construct: alanine scan variant; also called Peptide #17 44301
T16 peptide: Biotin-SGSGDGNPDPNANPNA

[18] = biological target: T1, Recombinant CSP (Wellcome Trust Sanger …); assay: SPR (ProteOn), biotinylated CSP on NLC chip, Fab as analyte, 25 C, 1:1 fit
[19] = biological target: T2, Peptide #12 (Biotin-SGSGDGNPDPAANPNV); assay: BLI, biotin-peptide on streptavidin sensor, IgG1 in solution, 25 C;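 as to Response (nm): antibody solution at 30 µg/mL during association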
[20] = biological target: T3, Peptide #3 …; assay: as above
[21] = biological target: T4, Peptide #14 (Biotin-SGSGDGNPDPNAAPNV); assay: as above
[22] = biological target: T5, Peptide #1 …; assay: as above
[23] = biological target: T6, Peptide #15 (Biotin-SGSGDGNPDPNANANV); assay: as above
[24] = biological target: T7, Peptide #5 (Biotin-SGSGDGNPDPNANPNV), …; assay: as above
[25] = biological target: T8, Peptide #11 (Biotin-SGSGDGNPDANANPNV); assay: as above
[26] = biological target: T9, Peptide #7 (Biotin-SGSGDANPDPNANPNV); assay: as above
[27] = biological target: T10, Peptide #4 (Biotin-SGSGNPDPNANP); assay: as above
[28] = biological target: T11, Peptide #9 (Biotin-SGSGDGNADPNANPNV); assay: as above
[29] = biological target: T12, Peptide #6 (Biotin-SGSGAGNPDPNANPNV); assay: as above
[30] = biological target: T13, Peptide #16 (Biotin-SGSGDGNPDPNANPAV); assay: as above
[31] = biological target: T14, Peptide #10 (Biotin-SGSGDGNPAPNANPNV); assay: as above
[32] = biological target: T15, Peptide #8 (Biotin-SGSGDGAPDPNANPNV); assay: as above
[33] = biological target: T16, Peptide #17 (Biotin-SGSGDGNPDPNANPNA); assay: as above
[34] = biological target: T17, full CSP protein (analyte of Example 12) (Plasmodium falciparum (isolate 3D7), UniProt Q7K740 19-374); assay: SPR, IgG1 from supernatant on anti-human IgG surface, CSP as analyte, 25 C, 1:1 fit
T17 construct: not shown: C-terminal tags

## Mouse monoclonal antibody 2A10 (IgG2aK)
[1]
  Kd: 0.04 nM
  koff: 9.41e-05 s⁻¹
  kon: 2.23e+06 M⁻¹ s⁻¹

B1: Antibody 669, human IgG1 (antibody, V domains shown)
VH: QVQLVQSGAEVKKPGASVRVSCKASGFTFTSYAMHWVRQAPGQRLEWMGWINAGNGHTKYSQKFQDRVAITRDTSATTVYMDLSSLRSEDTAVYYCTRDGFCTSTTCSDHYGMDVWGQGTTVTVSS
VL: QSALTQPASVSGSPGQSITISCTGTSSDVGSYNYVSWYQQHPGKAPKFMIYDVSKRPSGVSNRFSGSKSGNTASLTISGLQAEDEADYYCCSYAGSSTWVFGGGTKLTVL
notes: human IgG1; HEK (Expi293F) product; also called AB-000669; Ab669
[2]
  Kd: 0.47 nM
  koff: 0.000125 s⁻¹
  kon: 265000 M⁻¹ s⁻¹
[3]
  Response (nm): 2.81 nm
[4]
  Response (nm): 5.06 nm
[5]
  Response (nm): 0.0239 nm
  binding result: no binding (tested: LOD 0.125 nm)
[6]
  Response (nm): 5.83 nm
[7]
  Response (nm): 2.82 nm
[8]
  Response (nm): 3.76 nm
[9]
  Response (nm): 2.18 nm
[10]
  Response (nm): 3.86 nm
[11]
  Response (nm): 5.27 nm
[12]
  Response (nm): 3.68 nm
[13]
  Response (nm): 3.82 nm
[14]
  Response (nm): 3.66 nm
[15]
  Response (nm): 4.48 nm
[16]
  Response (nm): 3.79 nm
[17]
  Response (nm): 3.85 nm

B2: Antibody 669 Fab (Fab, V domains shown)
VH: B1 VH
VL: B1 VL
notes: recombinant human Fab from CHO-3E7 cells, purified on nickel columns
[18]
  Kd: 126 nM
  koff: 0.00211 s⁻¹
  kon: 16800 M⁻¹ s⁻¹

B3: Antibody 666, human IgG1 (antibody, V domains shown)
VH: QVQLVQSGAEVKKPGASVKVSCKASGYTFTNYAMHWVRQAPGQRLEWMGWINAGNGNTKYSQNFQGRVTITRDTSASTAYMELSSLRSEDTAVYYCARDEYYASGSYYDYYYYGMDVWGQGTTVTVTS
VL: B1 VL with S31V, Y38F, F48L, D52N, K106N
notes: human IgG1; also called Ab666
[19]
  Response (nm): 0.0943 nm
[20]
  Response (nm): 6.53 nm
[21]
  Response (nm): 0.0116 nm
  binding result: no binding (tested: LOD 0.020 nm)
[22]
  Response (nm): 9.06 nm
[23]
  Response (nm): 0.862 nm
[24]
  Response (nm): 2.4 nm
[25]
  Response (nm): 0.982 nm
[26]
  Response (nm): 2.99 nm
[27]
  Response (nm): 7.06 nm
[28]
  Response (nm): 1.75 nm
[29]
  Response (nm): 3.14 nm
[30]
  Response (nm): 2.7 nm
[31]
  Response (nm): 5.18 nm
[32]
  Response (nm): 2.23 nm
[33]
  Response (nm): 2.95 nm
[34]
  kon: 1e+08 M⁻¹ s⁻¹
[2]
  Kd: 0.18 nM
  koff: 1.7e-05 s⁻¹
  kon: 97000 M⁻¹ s⁻¹
